Test results reported in US7135457 (CYTOGEN, dated 2006).
Like-named read-outs stand apart in the source and are kept apart here.

Legend:
[1] = target: T1, human D2H transporter receptor domain, amino acid residues 387-685, His-tag fusion protein (human, UniProt Q07837 387-685); experiment: phage ELISA, coated D2H domain
T1 construct: Expressed as His-tag fusion, purified under denaturing conditions, coated on plates; not shown: poly-histidine tag (pET His-tag) at the NH2-terminal end
T1 sequence: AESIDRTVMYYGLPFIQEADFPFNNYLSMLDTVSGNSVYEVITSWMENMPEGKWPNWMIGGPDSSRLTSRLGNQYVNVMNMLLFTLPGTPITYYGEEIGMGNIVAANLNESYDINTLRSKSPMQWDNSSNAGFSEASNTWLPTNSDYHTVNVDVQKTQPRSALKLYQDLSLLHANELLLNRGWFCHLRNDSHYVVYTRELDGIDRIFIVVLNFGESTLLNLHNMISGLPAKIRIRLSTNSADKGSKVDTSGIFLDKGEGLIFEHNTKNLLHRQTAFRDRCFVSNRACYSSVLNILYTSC
Method: (§1) 6.6. Receptor ELISA Procedure 96 well plates were coated overnight with GIT receptor, BSA and, optionally, IDE (insulin degrading enzyme, an irrelevant His-fusion protein) or hTF. The plates were blocked for one hour with 0.5% BSA-PBS. After clarification, the amplified phage were diluted 1:100 in 1% BSA plus 0.05% Tween 20 in PBS and added to the plates. Following incubation of the plates on a rotator for 1 to 2 hours, the plates were washed 5 times with 1% BSA plus 0.05% Tween 20 in PBS. […] After the plates were washed 5 times, as described above, TMB substrate was added to the wells. The plates were read at 650 nm absorbance.

[2] = target: T1, human D2H transporter receptor domain, …; experiment: phage ELISA, OD on D2H over OD on BSA
Method: as §1

[3] = target: T2, human intestinal peptide-associated transporter HPT1 receptor domain, amino acid residues 29-273, His-tag … (human, UniProt Q12864 29-273); experiment: phage ELISA, OD on HPT1 over OD on BSA
T2 construct: Expressed as His-tag fusion, purified under denaturing conditions, coated on plates; not shown: poly-histidine tag (pET His-tag) at the NH2-terminal end
T2 sequence: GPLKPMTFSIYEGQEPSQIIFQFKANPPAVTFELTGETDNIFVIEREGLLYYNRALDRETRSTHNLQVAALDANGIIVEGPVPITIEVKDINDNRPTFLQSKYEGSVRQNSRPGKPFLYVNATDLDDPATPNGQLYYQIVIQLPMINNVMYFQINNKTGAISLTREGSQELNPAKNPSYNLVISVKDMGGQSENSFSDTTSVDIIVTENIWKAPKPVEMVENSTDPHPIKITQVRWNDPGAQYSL
Method: as §1

[4] = target: T1, human D2H transporter receptor domain, …; experiment: phage ELISA, coated D2H domain; remark: listed apart in the source
Method: as §1
(§2) Binding to fixed Caco-2 cells, D2H and BSA was examined.

[5] = target: T1, human D2H transporter receptor domain, …; experiment: phage ELISA, OD on D2H over OD on BSA; remark: listed apart in the source
Method: as §1, §2

[6] = target: T2, human intestinal peptide-associated …; experiment: phage ELISA, coated HPT1 domain
[7] = target: T2, human intestinal peptide-associated …; experiment: phage ELISA, OD on HPT1 over OD on BSA; remark: listed apart in the source
[8] = target: T3, human sucrase-isomaltase complex (hSI) receptor domain, amino acid residues 272-667, His-tag fusion protein (human, UniProt P14410 272-667); experiment: phage ELISA, coated hSI domain
T3 construct: Expressed as His-tag fusion, purified under denaturing conditions (urea or guanidine HCl), coated on plates; also called hS1 receptor domain; not shown: poly-histidine tag (pET His-tag) at the NH2-terminal end
T3 sequence (P14410 272-667, one chain of several): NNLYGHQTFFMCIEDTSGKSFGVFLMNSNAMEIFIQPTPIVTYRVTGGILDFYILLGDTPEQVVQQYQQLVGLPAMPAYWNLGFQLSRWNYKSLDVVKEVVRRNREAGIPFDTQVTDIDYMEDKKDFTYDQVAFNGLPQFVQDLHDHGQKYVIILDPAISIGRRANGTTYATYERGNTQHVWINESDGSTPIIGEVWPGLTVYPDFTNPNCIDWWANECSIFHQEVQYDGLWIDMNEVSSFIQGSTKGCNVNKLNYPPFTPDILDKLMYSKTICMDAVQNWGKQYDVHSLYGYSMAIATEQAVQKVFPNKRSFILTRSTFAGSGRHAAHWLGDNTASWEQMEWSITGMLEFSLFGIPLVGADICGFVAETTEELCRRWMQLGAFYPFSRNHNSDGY

[9] = target: T3, human sucrase-isomaltase complex (hSI) …; experiment: phage ELISA, OD on hSI over OD on BSA

## SESGRCRSVSRWMTTWQTQKGGCGSNVSRGSPLDPSHQTGHATT (pIII and flanks not included) [phage DAX15]
[1]
  OD: 0.391 OD 650 nm
[2]
  D2H/BSA: 4 ratio

## RHISEYSFANSHLMGGESKRKGCGINGSFSPTCPRSPTPAFRRT (pIII and flanks not included) [phage HCA3]
[3]
  HPT1/BSA: 1 ratio

## SGRTTSEISGLWGWGDDRSGYGWGNTLRPNYIPYRQATNRHRYT (pIII and flanks not included) [phage DCX26]
[4]
  OD: 0.956 OD 650 nm
[5]
  D2H/BSA: 4 ratio

B1: phage HAX40 (peptide)
peptide: REFAERRLWGCDDLSWRLDAEGCGPTPSNRAVKHRKPRPRSPAL
notes: pIII and flanks not included; also called H44
[6]
  OD: 0.991 OD 650 nm
[7]
  HPT/BSA: 15 ratio

## SPKLSSVGVMTKVTELPTEGPNAISIPISATLGPRNPLR (pIII and flanks not included) [phage SNiAX8]
[8]
  OD: 0.342 OD 650 nm
[9]
  hSI/BSA: 5 ratio

## SHPWYRHWNHGDFSGSGQSRHTPPESPHPGRPNATI (pIII and flanks not included) [phage DAX27]
[1]
  OD: 1.58 OD 650 nm
[2]
  D2H/BSA: 4 ratio

## SKSGEGGDSSRGETGWARVRSHAMTAGRFRWYNQLPSDR (pIII and flanks not included) [phage DAB10]
[1]
  OD: 0.644 OD 650 nm
[2]
  D2H/BSA: 4 ratio

## RTTTAKGCLLGSFGVLSGCSFTPTSPPPHLGYPPHSVN (pIII and flanks not included) [phage SNiAX6]
[8]
  OD: 0.369 OD 650 nm
[9]
  hSI/BSA: 7 ratio

## SQGSKQCMQYRTGRLTVGSEYGCGMNPARHATPAYPARLLPRYR (pIII and flanks not included) [phage DCX11]
[4]
  OD: 0.222 OD 650 nm
[5]
  D2H/BSA: 3 ratio

## SVGNDKTSRPVSFYGRVSDLWNASLMPKRTPSSKRHDDG (pIII and flanks not included) [phage DCX45]
[4]
  OD: 0.336 OD 650 nm
[5]
  D2H/BSA: 4 ratio

## SDSDGDHYGLRGGVRCSLRDRGCGLALSTVHAGPPSFYPKLSSP (pIII and flanks not included) [phage SNiAX2]
[8]
  OD: 0.383 OD 650 nm
[9]
  hSI/BSA: 6 ratio

## RWCGADDPCGASRWRGGNSLFGCGLRCSAAQSTPSGRIHSTSTS (pIII and flanks not included) [phage DAB7]
[1]
  OD: 0.702 OD 650 nm
[2]
  D2H/BSA: 8 ratio

## SKWSWSSRWGSPQDKVEKTRAGCGGSPSSTNCHPYTFAPPPQAG (pIII and flanks not included) [phage DAB24]
[1]
  OD: 1.8 OD 650 nm
[2]
  D2H/BSA: 4 ratio

## RYSGLSPRDNGPACSQEATLEGCGAQRLMSTRRKGRNSRPGWTL (pIII and flanks not included) [phage DCX42]
[4]
  OD: 0.158 OD 650 nm
[5]
  D2H/BSA: 2 ratio

## SDHALGTNLRSDNAKEPGDYNCCGNGNSTGRKVFNRRRPSAIPT (pIII and flanks not included) [phage HAX42]
[6]
  OD: 0.32 OD 650 nm
[7]
  HPT/BSA: 5 ratio

## SGFWEFSRGLWDGENRKSVRSGCGFRGSSAQGPCPVTPATIDKH (pIII and flanks not included) [phage DAB30]
[1]
  OD: 0.704 OD 650 nm
[2]
  D2H/BSA: 6 ratio

## RSSANNCEWKSDWMRRACIARYANSSGPARAVDTKAAP (pIII and flanks not included) [phage DAB18]
[1]
  OD: 0.467 OD 650 nm
[2]
  D2H/BSA: 5 ratio

## RMEDIKNSGWRDSCRWGDLRPGCGSRQWYPSNMRSSRDYPAGGH (pIII and flanks not included) [phage DAX24]
[1]
  OD: 0.591 OD 650 nm
[2]
  D2H/BSA: 5 ratio

## RYKHDIGCDAGVDKKSSSVRGGCGAHSSPPRAGRGPRGTMVSRL (pIII and flanks not included) [phage DCX8]
[4]
  OD: 0.163 OD 650 nm
[5]
  D2H/BSA: 3 ratio

## SREEANWDGYKREMSHRSRFWDATHLSRPRRPANSGDPN (pIII and flanks not included) [phage HAX9]
[6]
  OD: 0.382 OD 650 nm
[7]
  HPT/BSA: 5 ratio

## RWCGAELCNSVTKKFRPGWRDHANPSTHHRTPPPSQSSP (pIII and flanks not included) [phage DAB3]
[1]
  OD: 0.406 OD 650 nm
[2]
  D2H/BSA: 6 ratio

## RWNWTVLPATGGHYWTRSTDYHAINNHRPSIPHQHPTPI (pIII and flanks not included) [phage DCX33]
[4]
  OD: 0.616 OD 650 nm
[5]
  D2H/BSA: 6 ratio

## SSSSDWGGVPGKVVRERFKGRGCGISITSVLTGKPNPCPEPKAA (pIII and flanks not included) [phage S22]
[8]
  OD: 0.399 OD 650 nm
[9]
  hSI/BSA: 7 ratio

## SGGEVSSWGRVNDLCARVSWTGCGTARSARTDNKGFLPKHSSLR (pIII and flanks not included) [phage SNi45]
[8]
  OD: 0.518 OD 650 nm
[9]
  hSI/BSA: 9 ratio

## REWRFAGPPLDLWAGPSLPSFNASSHPRALRTYWSQRPR (pIII and flanks not included) [phage DAX23]
[1]
  OD: 0.698 OD 650 nm
[2]
  D2H/BSA: 5 ratio
